PMC2891831, “Insight into the Mechanisms of Adenovirus Capsid Disassembly from Studies of Defensin Neutralization” (PLoS Pathogens, 2010)

Tests used:
[1] = molecular target: HAdV-19c (virus particle) (human adenovirus 19c (HAdV-19c)); assay: co-sedimentation; as a1 but one concentration, 20 µM HD5; HD5 bound expressed as percent of HD5 bound to HAdV-5 in parallel samples
[2] = molecular target: HAdV-25p (virus particle) (human adenovirus 25 (HAdV-25p)); assay: as above
[3] = molecular target: HAdV-51p (virus particle) (human adenovirus 51 (HAdV-51p)); assay: as above
[4] = molecular target: HAdV-7p (virus particle) (human adenovirus 7 (HAdV-7p)); assay: as above
[5] = molecular target: Ad5.eGFP, replication-defective HAdV-5 vector (virus particle) (human adenovirus 5 (HAdV-5)) (UniProt P04133); assay: co-sedimentation; equilibrium-binding assay; HD5 serially diluted in PBS and mixed with 5 µg purified virus, 1 h on ice; virus/HD5 complex separated from unbound HD5 by ultracentrifugation on a discontinuous nycodenz gradient (50 mM NaCl, 20 mM HEPES pH 7.4, 4°C); bound HD5 quantified after SDS-PAGE (Deep Purple stain) against a standard curve; apparent affinity, no estimate of non-specific binding

For human alpha-defensin HD5 (peptide), the percent of the amount of HD5 bound to HAdV-5 [1] was 32.5%, the percent of the amount of HD5 bound to HAdV-5 [2] was 3.3% and the percent of the amount of HD5 bound to HAdV-5 [3] was 24.6%. It also gave a percent of the amount of HD5 bound to HAdV-5 [4] of 69.3%, a Kd [5] of 14.5 µM and a stoichiometry N (HD5 molecules per virus particle) [5] of 2750.
